Assay results from patent publication US20260202410A1 (NORDIC BIOSCIENCE A S, published 2026).

T1: elongated peptide QRAFNKGPDPG
T1 construct: also called elongated selection peptide
T1 peptide: QRAFNKGPDPG

T2: truncated peptide QRAFNKGPD
T2 construct: also called truncated selection peptide
T2 peptide: QRAFNKGPD

T3: non-sense coating and standard peptide DQAAGGLRQH
T3 construct: also called non-sense peptide; non-sense standard peptide
T3 peptide: DQAAGGLRQH

B1: standard peptide QRAFNKGPDP (PRO-C9 target sequence, C-terminus of type IX collagen alpha-1 chain) (peptide)
peptide: QRAFNKGPDP
notes: Synthetic peptide from Genscript with a free C-terminus; also called selection peptide
B2: monoclonal antibody clone NBH313 #46 9H11-1D9-2B6 (antibody, V domains shown)
VH: EVQLVESGGGLVQPKGSLKLSCAASGFTFNIYTMNWVRQAPGKGLEWVARIRSKSENYATYYADSVKDRFTISRDDSQSILYLQMNNLKTEDTAIYYCVRQGIYYDYYGAMDYWGQGTSVTVSS
VL: NIMMTQSPSSLAVSAGEKATMSCKSSQSLLYSSNQMNYLAWYQQKPGQSPKLLIYWASTRESDVPDRFTGSGSGTDFTLTISSVQTEDLAVYYCHQYFSSRTFGGGTKLEIKR
notes: Mouse (Balb/C) hybridoma monoclonal antibody; also called PRO-C9 antibody; the mAb

Experiments:
[1] = molecular target: B2; experiment: competitive CLIA: free standard peptide against coated Biotin-… for HRP-labelled antibody
Description: (§1) Next, 20 μL/well of standard peptide (100 ng/mL) and samples were added to the appropriate wells, followed by the addition of 100 μL/well of HRP-labelled antibody diluted in assay buffer to the concertation of 100 ng/mL and incubated for 20 h at 4° C. with constant shaking (300 rpm) in darkness. After each incubation step, wells were washed with standard washing buffer (20 mM Tris, 50 mM NaCl, pH 7.2). The chemiluminescence substrate (Roche, BM Chemiluminescence ELISA substrate (POD), Basel, Switzerland) working solutions were mixed 15 min before use and 100 μL/well were added to plate and incubated for 3 min at 20° C. with constant shaking (300 rpm) in darkness. The relative light units were measured at all wavelengths within 5 min on a microplate luminometer reader (SpectraMax M5, Molecular Devices, CA, USA).
Accuracy of the assay was measured in healthy human serum samples spiked with standard peptide and a serum sample with a known high PRO-C9 concentration and calculated as the percentage recovery of the measured value and the expected concentration of the peptide or the serum sample with high PRO-C9 plus the concentration of the analyte in serum. […] Recovery percentage was calculated with the normal serum sample as reference. […] The interference was calculated as the percentage recovery of the analyte in non-spiked serum. […]

[2] = molecular target: B1; experiment: ELISA screening of hybridoma clones
Description: An indirect ELISA performed on streptavidin-coated plates was used for the screening of supernatant reactivity. Biotin-[…] was used as screening peptide, while the standard peptide […] was used to further test the specificity of the clones. Supernatant was collected from the hybridoma cells and purified using HiTrap affinity columns (GEHealthcare Life Science, Little Chalfront, Buckinghamshire, UK) according to manufacturer instructions and antibody isotype was determined using Rapid ELISA Mouse monoclonal antibody Isotyping Kit (Invitrogen, Carlsbad, CA, USA) following the manufacturer's protocol.

[3] = molecular target: T1, elongated peptide QRAFNKGPDPG; experiment: competitive CLIA, signal inhibition by two-fold diluted peptide
Description: (§2) The development of the competitive chemiluminescence immunoassay (CLIA) included several preliminary optimizing experiments where reagents, concentrations, incubation-time and -temperature were analysed by several tests. The PRO-C9 competitive ELISA procedure was as follows: A 96-well streptavidin-coated white microplate (Greiner Bio-One, Kremsminster, Austria) was coated with 5 ng/mL biotinylated synthetic peptide (Biotin-[…] SEQ ID No. 18) dissolved in assay buffer (10 mM phosphate buffered saline (PBS), 1% bovine serum albumin, 0.1% Tween-20, 0.36% Bronidox, 4 g/L NaCl, adjusted to pH 7.4 at 20° C.) and incubated for 30 min at 20° C. with constant shaking (300 rpm) in darkness.
as §1, with “The chemiluminescence substrate (Roche, BM Chemiluminescence ELISA substrate (POD), Basel, Switzerland) working solutions were mixed 15 min before use and 100 μL/well were added to plate and incubated for 3 min at 20° C. with constant shaking (300 rpm) in darkness.” left out
(§3) Two-fold dilutions of four human serum samples were used to assess linearity. Linearity was calculated as a percentage of recovery of the undiluted sample. […]

[4] = molecular target: T2, truncated peptide QRAFNKGPD; experiment: as above
Description: as §2
as §1, with “The chemiluminescence substrate (Roche, BM Chemiluminescence ELISA substrate (POD), Basel, Switzerland) working solutions were mixed 15 min before use and 100 μL/well were added to plate and incubated for 3 min at 20° C. with constant shaking (300 rpm) in darkness.” left out
as §3

[5] = molecular target: T3, non-sense coating and standard peptide …; experiment: competitive CLIA, non-sense peptide tested as free standard and as coater
Description: as §2
as §1, with “The chemiluminescence substrate (Roche, BM Chemiluminescence ELISA substrate (POD), Basel, Switzerland) working solutions were mixed 15 min before use and 100 μL/well were added to plate and incubated for 3 min at 20° C. with constant shaking (300 rpm) in darkness.” left out
as §3

IC50 [1] [ng/mL] | binding result [2] | binding result [3] | binding result [4] | binding result [5] | Binder
3.62 | – | – | – | – | B1
– | binds | no binding | no binding | no binding | B2
